Test results reported in EP4782541A1 (Nanjing Probio Biotech Co., Ltd., dated 2026).

Legend:
[1] = target: human ROR1 (on CHO-K1/ROR1 cells and ROR1 tumour cell lines) (human) (UniProt Q01973); test: flow cytometry on A549 cells (human ROR1 tumour cell line)
[2] = target: human ROR1 (on CHO-K1/ROR1 cells and ROR1 tumour cell lines) (human) (UniProt Q01973); test: flow cytometry on Jeko-1 cells (human ROR1 tumour cell line)
[3] = target: human ROR1 (on CHO-K1/ROR1 cells and ROR1 tumour cell lines) (human) (UniProt Q01973); test: flow cytometry on CHO-K1/ROR1 cells overexpressing human ROR1
[4] = target: human ROR1 (on CHO-K1/ROR1 cells and ROR1 tumour cell lines) (human) (UniProt Q01973); test: flow cytometry on PSN-1 cells (human ROR1 tumour cell line)
[5] = target: T1, human CD3 (on Jurkat cells) (human, UniProt P07766 23-207; P09693 23-182; P04234 22-171); test: flow cytometry on Jurkat cells expressing human CD3
T1 construct: whole, on cells
T1 sequence (P07766 23-207, chain 1 of 3): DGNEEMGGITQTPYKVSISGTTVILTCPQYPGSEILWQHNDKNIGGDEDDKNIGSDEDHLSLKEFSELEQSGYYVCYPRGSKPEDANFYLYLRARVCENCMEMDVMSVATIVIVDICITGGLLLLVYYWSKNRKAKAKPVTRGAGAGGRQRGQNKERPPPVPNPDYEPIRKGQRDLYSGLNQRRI
T1 sequence (P09693 23-182, chain 2 of 3): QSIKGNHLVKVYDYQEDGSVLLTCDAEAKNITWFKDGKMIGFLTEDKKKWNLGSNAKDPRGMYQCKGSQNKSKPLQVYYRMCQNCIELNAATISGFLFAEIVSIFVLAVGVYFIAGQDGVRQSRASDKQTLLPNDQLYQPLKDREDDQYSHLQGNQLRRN
T1 sequence (P04234 22-171, chain 3 of 3): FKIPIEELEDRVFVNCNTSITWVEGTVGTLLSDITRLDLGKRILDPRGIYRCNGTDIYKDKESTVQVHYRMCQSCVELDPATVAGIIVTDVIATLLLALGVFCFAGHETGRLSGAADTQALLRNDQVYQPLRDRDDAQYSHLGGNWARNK

[6] = target: human ROR1 (on CHO-K1/ROR1 cells and ROR1 tumour cell lines) (human) (UniProt Q01973); test: flow cytometry on MDA-MB-231 cells (human ROR1 tumour cell line)
[7] = target: human ROR1 (on CHO-K1/ROR1 cells and ROR1 tumour cell lines) (human) (UniProt Q01973); test: cell-based or functional assay
[8] = target: human ROR1 (on CHO-K1/ROR1 cells and ROR1 tumour cell lines) (human) (UniProt Q01973); test: flow cytometry on PA-1 cells (human ROR1 tumour cell line)
[9] = target: human ROR1 (on CHO-K1/ROR1 cells and ROR1 tumour cell lines) (human) (UniProt Q01973); test: flow cytometry on A375 cells (human ROR1 tumour cell line)
[10] = target: T2, human ROR1 protein (human, UniProt Q01973 30-403, limits assumed); test: SPR (Biacore 8K); human ROR1 amine-coupled at 0.05 ug/mL as ligand, antibody as analyte
T2 construct: Recombinant antigen of the SPR assay; also called ROR1 (SPR ligand)
T2 sequence (Q01973 30-403 limits assumed): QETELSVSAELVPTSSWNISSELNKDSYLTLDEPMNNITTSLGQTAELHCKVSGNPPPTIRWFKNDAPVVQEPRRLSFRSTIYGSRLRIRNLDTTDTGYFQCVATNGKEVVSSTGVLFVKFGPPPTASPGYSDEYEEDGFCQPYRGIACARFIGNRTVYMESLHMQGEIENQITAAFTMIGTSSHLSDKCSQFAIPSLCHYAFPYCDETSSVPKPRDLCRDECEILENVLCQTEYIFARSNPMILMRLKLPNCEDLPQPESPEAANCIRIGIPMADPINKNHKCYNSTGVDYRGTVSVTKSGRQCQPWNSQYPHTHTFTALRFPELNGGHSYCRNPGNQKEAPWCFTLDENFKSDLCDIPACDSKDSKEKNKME

[11] = target: T2, human ROR1 protein; test: SPR (Biacore 8K); human ROR1 amine-coupled at 12.50 ug/mL as ligand, antibody as analyte
[12] = target: T2, human ROR1 protein; test: SPR (Biacore 8K); human ROR1 amine-coupled at 0.10 ug/mL as ligand, antibody as analyte
[13] = target: T2, human ROR1 protein; test: SPR (Biacore 8K); human ROR1 amine-coupled at 62.50 ug/mL as ligand, antibody as analyte
[14] = target: T2, human ROR1 protein; test: SPR (Biacore 8K); human ROR1 amine-coupled at 0.50 ug/mL as ligand, antibody as analyte
[15] = target: T2, human ROR1 protein; test: SPR (Biacore 8K); human ROR1 amine-coupled at 2.50 ug/mL as ligand, antibody as analyte
[16] = target: T3, human ROR1 (on CHO-K1/ROR1 cells and ROR1 tumour cell lines) (human, UniProt Q01973 30-937); test: flow cytometry on CHO-K1/ROR1 cells overexpressing human ROR1
T3 construct: whole, on cells; also called receptor tyrosine kinase-like orphan receptor 1
T3 sequence (Q01973 30-937): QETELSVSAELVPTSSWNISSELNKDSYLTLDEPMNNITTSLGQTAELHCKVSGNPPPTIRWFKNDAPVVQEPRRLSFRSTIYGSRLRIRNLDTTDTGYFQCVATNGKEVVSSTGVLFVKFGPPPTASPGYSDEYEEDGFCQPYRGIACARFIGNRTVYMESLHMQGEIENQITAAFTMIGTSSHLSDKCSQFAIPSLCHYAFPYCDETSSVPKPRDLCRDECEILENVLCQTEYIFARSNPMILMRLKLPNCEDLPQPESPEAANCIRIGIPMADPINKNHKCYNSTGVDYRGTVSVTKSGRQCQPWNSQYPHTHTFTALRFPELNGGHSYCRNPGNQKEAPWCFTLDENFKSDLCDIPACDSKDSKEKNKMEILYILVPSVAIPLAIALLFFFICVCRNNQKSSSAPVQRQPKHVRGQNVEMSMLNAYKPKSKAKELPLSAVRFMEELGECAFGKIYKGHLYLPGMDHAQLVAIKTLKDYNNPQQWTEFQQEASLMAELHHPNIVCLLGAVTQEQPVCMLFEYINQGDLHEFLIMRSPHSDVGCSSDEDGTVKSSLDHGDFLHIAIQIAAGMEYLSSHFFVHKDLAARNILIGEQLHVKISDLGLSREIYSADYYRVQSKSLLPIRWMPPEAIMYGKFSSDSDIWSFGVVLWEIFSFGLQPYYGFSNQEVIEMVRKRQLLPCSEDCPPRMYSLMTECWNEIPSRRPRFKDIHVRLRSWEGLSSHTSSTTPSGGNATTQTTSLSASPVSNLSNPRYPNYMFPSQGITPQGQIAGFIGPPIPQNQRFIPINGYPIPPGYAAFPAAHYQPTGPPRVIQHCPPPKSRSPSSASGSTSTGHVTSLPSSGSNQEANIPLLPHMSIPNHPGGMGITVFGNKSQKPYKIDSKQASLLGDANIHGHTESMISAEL

Sequence of human ROR1 (on CHO-K1/ROR1 cells and ROR1 tumour cell lines) (human) (Q01973 30-937): as above

EMB-07 (bispecific antibody)
EC50 [1]: 4.01 nM
EC50 [2]: 7.15 nM
EC50 [3]: 2.39 nM
EC50 [4]: 6.09 nM
EC50 [5]: 4.45 nM
EC50 [6]: 3.84 nM
EC50 of T cell activation based on reporter gene (luciferase), target cells A375 [7]: 0.428 nM
EC50 of T cell activation based on reporter gene (luciferase), target cells Jeko-1 [7]: 0.155 nM
EC50 of T cell activation based on reporter gene (luciferase), target cells MDA-MB-231 [7]: 0.0644 nM
EC50 [8]: 5.06 nM
EC50 [9]: 2.5 nM

B1: BsAb-9 (bispecific antibody, human IgG1, lambda)
chain: EVQLVESGGGLVQPGGSLRLSCAASGFISRFYAMGWYRQAPGKQRELVARISSMGWTYYADSVKGRFTISIDNSKNTLYLQMNSLRAEDTAVYYCNARNLWGQGTLVTVSSDKTHTCPPCPAPESTRGPSVFLFPPKPKDTLMISRTPEVTCVVVDVSHEDPEVKFNWYVDGVEVHNAKTKPREEQYNSTYRVVSVLTVLHQDWLNGKEYKCKVSNKALPAPIEKTISKAKGQPREPQVCTLPPSRDELTKNQVSLSCAVKGFYPSDIAVEWESNGQPENNYKTTPPVLDSDGSFFLVSKLTVDKSRWQQGNVFSCSVMHEALHNHYTQKSLSLSPGK
heavy: EVQLVESGGGLVQPGGSLRLSCAASGFISRFYAMGWYRQAPGKQRELVARISSMGWTYYADSVKGRFTISIDNSKNTLYLQMNSLRAEDTAVYYCNARNLWGQGTLVTVSSGGGGSGGGGSGGGGSEVQLVESGGGLVQPGRSLRLSCAASGFTFNTYAMNWVRQAPGKGLEWVARIRSKYNNYATYYADSVKDRFTISRDDSKSIAYLQMNSLKTEDTAVYYCVRHGNFGNSYVSWFAYWGQGTLVTVSSASTKGPSVFPLAPSSKSTSGGTAALGCLVKDYFPEPVTVSWNSGALTSGVHTFPAVLQSSGLYSLSSVVTVPSSSLGTQTYICNVNHKPSNTKVDKKVEPKSCDKTHTCPPCPAPESTRGPSVFLFPPKPKDTLMISRTPEVTCVVVDVSHEDPEVKFNWYVDGVEVHNAKTKPREEQYNSTYRVVSVLTVLHQDWLNGKEYKCKVSNKALPAPIEKTISKAKGQPREPQVYTLPPCRDELTKNQVSLWCLVKGFYPSDIAVEWESNGQPENNYKTTPPVLDSDGSFFLYSKLTVDKSRWQQGNVFSCSVMHEALHNHYTQKSLSLSPGK
light: QTVVTQEPSLTVSPGGTVTLTCRSSTGAVTTSNYANWVQQKPGQAPRGLIGGTNKRAPGVPARFSGSLLGGKAALTLSGVQPEDEAEYFCALWYSNLWVFGGGTKLTVLGQPKAAPSVTLFPPSSEELQANKATLVCLISDFYPGAVTVAWKADSSPVKAGVETTTPSKQSNNKYAASSYLSLTPEQWKSHRSYSCQVTHEGSTVEKTVAPTECS
notes: also called BsAb-09
Kd [10]: 0.0811 nM
koff [10]: 0.00143 s⁻¹
kon [10]: 1.76e+07 M⁻¹ s⁻¹
Kd [11]: 0.00664 nM
koff [11]: 0.000242 s⁻¹
kon [11]: 3.65e+07 M⁻¹ s⁻¹
Kd [12]: 0.0497 nM
koff [12]: 0.00113 s⁻¹
kon [12]: 2.28e+07 M⁻¹ s⁻¹
EC50 [5]: 1.38 nM
Kd [13]: 0.00682 nM
koff [13]: 0.000187 s⁻¹
kon [13]: 2.73e+07 M⁻¹ s⁻¹
Kd [14]: 0.0216 nM
koff [14]: 0.00083 s⁻¹
kon [14]: 3.85e+07 M⁻¹ s⁻¹
Kd [15]: 0.0129 nM
koff [15]: 0.000521 s⁻¹
kon [15]: 4.05e+07 M⁻¹ s⁻¹
EC50 [16]: 0.0864 nM

B2: BsAb-8 (bispecific antibody, human IgG1, lambda)
chain: EVQLVESGGGLVQPGGSLRLSCAASGRSFSSFQMGWFRQAPGKEREFVAASGWSGGPTYYWDSVIGRFTISTDNSKNTLYLQMNSLRAEDTAVYYCYEDRVLSGRPVRYWGQGTLVTVSSGGGGSGGGGSGGGGSEVQLVESGGGLVQPGGSLRLSCAASGRSFSSFQMGWFRQAPGKEREFVAASGWSGGPTYYWDSVIGRFTISTDNSKNTLYLQMNSLRAEDTAVYYCYEDRVLSGRPVRYWGQGTLVTVSSDKTHTCPPCPAPESTRGPSVFLFPPKPKDTLMISRTPEVTCVVVDVSHEDPEVKFNWYVDGVEVHNAKTKPREEQYNSTYRVVSVLTVLHQDWLNGKEYKCKVSNKALPAPIEKTISKAKGQPREPQVCTLPPSRDELTKNQVSLSCAVKGFYPSDIAVEWESNGQPENNYKTTPPVLDSDGSFFLVSKLTVDKSRWQQGNVFSCSVMHEALHNHYTQKSLSLSPGK
heavy: EVQLVESGGGLVQPGRSLRLSCAASGFTFNTYAMNWVRQAPGKGLEWVARIRSKYNNYATYYADSVKDRFTISRDDSKSIAYLQMNSLKTEDTAVYYCVRHGNFGNSYVSWFAYWGQGTLVTVSSASTKGPSVFPLAPSSKSTSGGTAALGCLVKDYFPEPVTVSWNSGALTSGVHTFPAVLQSSGLYSLSSVVTVPSSSLGTQTYICNVNHKPSNTKVDKKVEPKSCDKTHTCPPCPAPESTRGPSVFLFPPKPKDTLMISRTPEVTCVVVDVSHEDPEVKFNWYVDGVEVHNAKTKPREEQYNSTYRVVSVLTVLHQDWLNGKEYKCKVSNKALPAPIEKTISKAKGQPREPQVYTLPPCRDELTKNQVSLWCLVKGFYPSDIAVEWESNGQPENNYKTTPPVLDSDGSFFLYSKLTVDKSRWQQGNVFSCSVMHEALHNHYTQKSLSLSPGK
light: B1 light
notes: also called BsAb-08
EC50 [5]: 0.838 nM
EC50 [16]: 0.28 nM

B3: BsAb-5 (bispecific antibody, human IgG1, lambda)
chain: EVQLVESGGGLVQPGGSLRLSCAASGFISRFYAMGWYRQAPGKQRELVARISSMGWTYYADSVKGRFTISIDNSKNTLYLQMNSLRAEDTAVYYCNARNLWGQGTLVTVSSGGGGSGGGGSGGGGSEVQLVESGGGLVQPGGSLRLSCAASGFISRFYAMGWYRQAPGKQRELVARISSMGWTYYADSVKGRFTISIDNSKNTLYLQMNSLRAEDTAVYYCNARNLWGQGTLVTVSSDKTHTCPPCPAPESTRGPSVFLFPPKPKDTLMISRTPEVTCVVVDVSHEDPEVKFNWYVDGVEVHNAKTKPREEQYNSTYRVVSVLTVLHQDWLNGKEYKCKVSNKALPAPIEKTISKAKGQPREPQVCTLPPSRDELTKNQVSLSCAVKGFYPSDIAVEWESNGQPENNYKTTPPVLDSDGSFFLVSKLTVDKSRWQQGNVFSCSVMHEALHNHYTQKSLSLSPGK
heavy: B2 heavy
light: B1 light
notes: also called BsAb-05
EC50 [5]: 0.913 nM
EC50 [16]: 0.109 nM

B4: BsAb-4 (bispecific antibody, human IgG1, lambda)
chain: EVQLVESGGGLVQPGGSLRLSCAASGRSFSSFQMGWFRQAPGKEREFVAASGWSGGPTYYWDSVIGRFTISTDNSKNTLYLQMNSLRAEDTAVYYCYEDRVLSGRPVRYWGQGTLVTVSSDKTHTCPPCPAPESTRGPSVFLFPPKPKDTLMISRTPEVTCVVVDVSHEDPEVKFNWYVDGVEVHNAKTKPREEQYNSTYRVVSVLTVLHQDWLNGKEYKCKVSNKALPAPIEKTISKAKGQPREPQVCTLPPSRDELTKNQVSLSCAVKGFYPSDIAVEWESNGQPENNYKTTPPVLDSDGSFFLVSKLTVDKSRWQQGNVFSCSVMHEALHNHYTQKSLSLSPGK
heavy: B2 heavy
light: B1 light
notes: also called BsAb-04
EC50 [5]: 0.629 nM
EC50 [16]: 0.373 nM
